Reference: patent US20250340660A1 (published 2025)
Values belong to the binder of their own block, whether it stands above or below them.

Tests used:
[1] = biological target: T1, human CD30L expressed on B16 cells (human, UniProt P32971 1-234); assay: cell-based or functional assay
T1 sequence (looked up): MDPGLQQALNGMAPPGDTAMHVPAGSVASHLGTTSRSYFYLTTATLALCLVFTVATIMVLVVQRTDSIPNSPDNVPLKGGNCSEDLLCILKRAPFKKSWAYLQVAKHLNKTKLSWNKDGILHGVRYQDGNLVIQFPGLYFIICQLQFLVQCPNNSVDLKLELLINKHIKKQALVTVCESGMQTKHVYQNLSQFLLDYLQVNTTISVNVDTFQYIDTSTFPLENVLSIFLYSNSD

[2] = biological target: T2, cynomolgus CD30L expressed on HEK293 cells (cynomolgus, UniProt A0A7N9CVX7 1-234); assay: cell-based or functional assay
T2 sequence: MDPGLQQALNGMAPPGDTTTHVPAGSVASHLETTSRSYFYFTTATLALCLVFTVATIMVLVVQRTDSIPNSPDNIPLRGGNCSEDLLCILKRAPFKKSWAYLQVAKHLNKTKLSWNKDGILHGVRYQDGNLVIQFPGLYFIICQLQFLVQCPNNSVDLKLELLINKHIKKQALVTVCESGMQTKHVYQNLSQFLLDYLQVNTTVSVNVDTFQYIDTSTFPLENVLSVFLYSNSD

[3] = biological target: T3, recombinant human CD30L protein (human, UniProt P32971 63-234, limits assumed); assay: ELISA, hybridoma supernatant 1/5000 dil, recombinant human CD30L
T3 construct: also called huCD30L; rhCD30L
T3 sequence (looked up): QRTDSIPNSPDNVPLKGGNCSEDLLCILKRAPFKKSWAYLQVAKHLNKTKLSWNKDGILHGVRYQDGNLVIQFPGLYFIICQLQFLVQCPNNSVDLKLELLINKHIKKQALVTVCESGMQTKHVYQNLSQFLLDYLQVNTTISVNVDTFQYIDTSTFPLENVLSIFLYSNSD

[4] = biological target: T4, human CD30L expressed on cells (human, UniProt P32971 1-234); assay: flow cytometry, hybridoma supernatant 1/50 dil, cells expressing human CD30L
T4 construct: also called huCD30L; TNFSF8
T4 sequence: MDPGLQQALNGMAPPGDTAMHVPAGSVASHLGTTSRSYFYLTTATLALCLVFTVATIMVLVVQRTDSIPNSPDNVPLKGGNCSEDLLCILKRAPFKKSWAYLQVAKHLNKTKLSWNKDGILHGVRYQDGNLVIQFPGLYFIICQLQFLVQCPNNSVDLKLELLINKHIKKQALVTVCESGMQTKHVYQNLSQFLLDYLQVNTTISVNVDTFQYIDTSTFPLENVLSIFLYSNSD

[5] = biological target: T3, recombinant human CD30L protein; assay: ELISA, hybridoma supernatant 1/500 dil, recombinant human CD30L
[6] = biological target: T3, recombinant human CD30L protein; assay: ELISA, hybridoma supernatant 1/50 dil, recombinant human CD30L
[7] = biological target: T5, cynomolgus CD30L expressed on cells (cynomolgus, UniProt A0A7N9CVX7 1-234); assay: flow cytometry, hybridoma supernatant 1/50 dil, cells expressing cynomolgus CD30L
T5 construct: whole, on cells; also called cyCD30L; cyno CD30L
T5 sequence: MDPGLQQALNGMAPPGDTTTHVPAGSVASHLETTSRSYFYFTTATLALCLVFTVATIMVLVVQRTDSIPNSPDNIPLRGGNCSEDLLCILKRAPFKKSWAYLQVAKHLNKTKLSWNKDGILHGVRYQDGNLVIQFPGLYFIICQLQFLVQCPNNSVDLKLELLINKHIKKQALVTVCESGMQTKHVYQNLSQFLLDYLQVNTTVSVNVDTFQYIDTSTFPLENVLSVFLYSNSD

B1: anti-CD30L Reference 1 antibody (antibody, human IgG1, lambda, V domains shown)
VH: QVQLQESGPGLVKPSETLSLTCTVSGGSISSYIWSWIRQPAGKGLEWIGRIYASGNTNYNPSLKSRVTISVDTSKNQFSLKLSSMTAADTAVYYCARDYRVAGTYYYYYGLDVWGQGTTVTVSS
VL: QSALTQPASVSGSPGQSITISCTGTSSDVGVYDYVSWYQQHPGKAPKLMIYEVSNRPSGVSNRFSGSKSGNTASLTISGLQTEDEADYYCSSYTSRSTWVFGGGTKLTVLG
Inhibition of IL-8 release in a dual cell assay (B16-huCD30L cells + K299 cells) IC50 [1]: 1.61 nM | Inhibition of IL-8 release in a dual cell assay (HEK293-cyCD30L cells + K299 cells) IC50 [2]: 0.79 nM

B6: anti-CD30L antibody Clone 1 (parental, hybridoma) (antibody, V domains shown)
VH: QVQLQESGPGLVKPSETLSLTCTVSGGSISGYYWSWIRQPPVKGLEWIGYIFYSGYTKYNPSLKSRVTISVDTSKNQFSLKLSSVTAADTAVYYCARDRWDFDYWGQGALVTVSS
VL: AIQMTQSPSYLSASVGDRVTIACRASQGIRNNLGWYQQKPGKAPKLLIYAESSLQSGVPSRFSGSGSGTDFTLTISSLQPEDFATYYCLQDFNYPYTFGQGTKLEIK
notes: Tested as diluted hybridoma supernatant from mice with a humanized immunoglobulin locus
Elisa Binding (OD) [3]: 1.28 OD | Cell Binding (MFI) [4]: 208 MFI | Elisa Binding (OD) [5]: 3.02 OD | Elisa Binding (OD) [6]: 3.59 OD | Cell Binding (MFI) [7]: 77.3 MFI

B7: anti-CD30L antibody Clone 2 (parental, hybridoma) (antibody, V domains shown)
VH: EVQLVESGGGLVQPGRSLRLSCAASGFNFDDYAMHWVRQAPGKGLEWVSGISWRSGNIGYAGSVKGRFTISRDNAKNSLYLQMNSLRPEDSALYYCAKDKGIGFNWNYEGFDYWGQGTLVTVSS
VL: DIQMTQSPSSLSASVGDRVTITCRASQGISNHLAWFQQKPGKAPKSLIYAASSLQSGVPSKFSGSGSGTDFTLTISSLQPEDFATYYCQQYVTYPLTFGGGTKVEIK
notes: as for B6
Elisa Binding (OD) [3]: 0.565 OD | Cell Binding (MFI) [4]: 280 MFI | Elisa Binding (OD) [5]: 1.71 OD | Elisa Binding (OD) [6]: 2.15 OD | Cell Binding (MFI) [7]: 57.6 MFI

Second part, the binder after the results:

Inhibition of IL-8 release in a dual cell assay (B16-huCD30L cells + K299 cells) IC50 [1]: 1.43 nM | Inhibition of IL-8 release in a dual cell assay (HEK293-cyCD30L cells + K299 cells) IC50 [2]: 0.39 nM
B2: anti-CD30L antibody clone 1 (antibody, V domains shown)
VH: QVQLQESGPGLVKPSETLSLTCTVSGGSISGYYWSWIRQPPVKGLEWIGYIFYSGYTKYNPSLKSRVTISVDTSKNQFSLKLSSVTAADTAVYYCARDRWDFDYWGQGALVTVSS
VL: AIQMTQSPSYLSASVGDRVTIACRASQGIRNNLGWYQQKPGKAPKLLIYAESSLQSGVPSRFSGSGSGTDFTLTISSLQPEDFATYYCLQDFNYPYTFGQGTKLEIK

Inhibition of IL-8 release in a dual cell assay (B16-huCD30L cells + K299 cells) IC50 [1]: 1.29 nM | Inhibition of IL-8 release in a dual cell assay (HEK293-cyCD30L cells + K299 cells) IC50 [2]: 0.43 nM
B3: anti-CD30L antibody clone 1 germlined (antibody, V domains shown)
VH: QVQLQESGPGLVKPSETLSLTCTVSGGSISGYYWSWIRQPPGKGLEWIGYIFYSGYTKYNPSLKSRVTISVDTSKNQFSLKLSSVTAADTAVYYCARDRWDFDYWGQGTLVTVSS
VL: AIQMTQSPSSLSASVGDRVTITCRASQGIRNNLGWYQQKPGKAPKLLIYAESSLQSGVPSRFSGSGSGTDFTLTISSLQPEDFATYYCLQDFNYPYTFGQGTKLEIK

Inhibition of IL-8 release in a dual cell assay (B16-huCD30L cells + K299 cells) IC50 [1]: 0.81 nM | Inhibition of IL-8 release in a dual cell assay (HEK293-cyCD30L cells + K299 cells) IC50 [2]: 0.31 nM
B4: anti-CD30L antibody clone 2 (antibody, V domains shown)
VH: EVQLVESGGGLVQPGRSLRLSCAASGFNFDDYAMHWVRQAPGKGLEWVSGISWRSGNIGYAGSVKGRFTISRDNAKNSLYLQMNSLRPEDSALYYCAKDKGIGFNWNYEGFDYWGQGTLVTVSS
VL: DIQMTQSPSSLSASVGDRVTITCRASQGISNHLAWFQQKPGKAPKSLIYAASSLQSGVPSKFSGSGSGTDFTLTISSLQPEDFATYYCQQYVTYPLTFGGGTKVEIK

Inhibition of IL-8 release in a dual cell assay (B16-huCD30L cells + K299 cells) IC50 [1]: 0.89 nM | Inhibition of IL-8 release in a dual cell assay (HEK293-cyCD30L cells + K299 cells) IC50 [2]: 0.41 nM
B5: anti-CD30L antibody clone 2 germlined (antibody, V domains shown)
VH: EVQLVESGGGLVQPGRSLRLSCAASGFNFDDYAMHWVRQAPGKGLEWVSGISWRSGNIGYADSVKGRFTISRDNAKNSLYLQMNSLRAEDTALYYCAKDKGIGFNWNYEGFDYWGQGTLVTVSS
VL: DIQMTQSPSSLSASVGDRVTITCRASQGISNHLAWFQQKPGKAPKSLIYAASSLQSGVPSRFSGSGSGTDFTLTISSLQPEDFATYYCQQYVTYPLTFGGGTKVEIK
